Substrate: Nc1ncnc2c1ncn2[C@@H]1O[C@H](COP(=O)(O)OP(=O)(O)OP(=O)(O)O)[C@@H](O)[C@H]1O
Experiment: malachite green phosphate release assay, Michaelis-Menten fit
Format: biochemical, Escherichia coli
Settings: no DNA, 5 mM MgCl2, 120 mM KCl, 10 mM HEPES-KOH pH 7.5, 37 °C, 250 nM MutS dimer
Description: malachite green phosphate release assay, Michaelis-Menten fit on ecMutS

B1: ecMutS (Escherichia coli K-12) (protein)
chain: MSAIENFDAHTPMMQQYLRLKAQHPEILLFYRMGDFYELFYDDAKRASQLLDISLTKRGASAGEPIPMAGIPYHAVENYLAKLVNQGESVAICEQIGDPATSKGPVERKVVRIVTPGTISDEALLQERQDNLLAAIWQDSKGFGYATLDISSGRFRLSEPADRETMAAELQRTNPAELLYAEDFAEMSLIEGRRGLRRRPLWEFEIDTARQQLNLQFGTRDLVGFGVENAPRGLCAAGCLLQYAKDTQRTTLPHIRSITMEREQDSIIMDAATRRNLEITQNLAGGAENTLASVLDCTVTPMGSRMLKRWLHMPVRDTRVLLERQQTIGALQDFTAGLQPVLRQVGDLERILARLALRTARPRDLARMRHAFQQLPELRAQLETVDSAPVQALREKMGEFAELRDLLERAIIDTPPVLVRDGGVIASGYNEELDEWRALADGATDYLERLEVRERERTGLDTLKVGFNAVHGYYIQISRGQSHLAPINYMRRQTLKNAERYIIPELKEYEDKVLTSKGKALALEKQLYEELFDLLLPHLEALQQSASALAELDVLVNLAERAYTLNYTCPTFIDKPGIRITEGRHPVVEQVLNEPFIANPLNLSPQRRMLIITGPNMGGKSTYMRQTALIALMAYIGSYVPAQKVEIGPIDRIFTRVGAADDLASGRSTFMVEMTETANILHNATEYSLVLMDEIGRGTSTYDGLSLAWACAENLANKIKALTLFATHYFELTQLPEKMEGVANVHLDALEHGDTIAFMHSVQDGAASKSYGLAVAALAGVPKEVIKRARQKLRELESISPNAAATQVDGTQMSLLSVPEETSPAVEALENLDPDSLTPRQALEWIYRLKSLV
notes: recombinant, N-terminal His6 tag, expressed in E. coli BL21(DE3), Ni-NTA and size exclusion; homodimer
Km: 35 ± 15 µM
kcat: 0.117 ± 0.0167 s⁻¹
